{"source": "paper doi:10.1101/288472", "target": "uncleaved full-length membrane-anchored HIV-1_(JR-FL) Env(-) glycoprotein (HIV-1 (JR-FL))", "test": "cryo-EM structure", "data": [{"substance": "uncleaved full-length membrane-anchored HIV-1_(JR-FL) Env(-) glycoprotein (natural protein)", "values": [{"measurement": "stoichiometry N", "result": 3}]}]}
